Reference: patent KR20200132110A (dated 2020)

Experiments:
[1] = biological target: T1, CTLA-4 (UniProt P16410 36-161, limits assumed); assay: ELISA, 100 nM coated protein
T1 construct: Negative control; The construct is not described
T1 sequence (looked up): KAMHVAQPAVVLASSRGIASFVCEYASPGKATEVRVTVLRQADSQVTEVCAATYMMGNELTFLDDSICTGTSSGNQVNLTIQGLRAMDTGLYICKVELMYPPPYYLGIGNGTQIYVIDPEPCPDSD

[2] = biological target: T2, BSA (UniProt P02769 25-607); assay: ELISA, 100 nM coated protein
T2 construct: Negative control
T2 sequence (P02769 25-607 limits assumed): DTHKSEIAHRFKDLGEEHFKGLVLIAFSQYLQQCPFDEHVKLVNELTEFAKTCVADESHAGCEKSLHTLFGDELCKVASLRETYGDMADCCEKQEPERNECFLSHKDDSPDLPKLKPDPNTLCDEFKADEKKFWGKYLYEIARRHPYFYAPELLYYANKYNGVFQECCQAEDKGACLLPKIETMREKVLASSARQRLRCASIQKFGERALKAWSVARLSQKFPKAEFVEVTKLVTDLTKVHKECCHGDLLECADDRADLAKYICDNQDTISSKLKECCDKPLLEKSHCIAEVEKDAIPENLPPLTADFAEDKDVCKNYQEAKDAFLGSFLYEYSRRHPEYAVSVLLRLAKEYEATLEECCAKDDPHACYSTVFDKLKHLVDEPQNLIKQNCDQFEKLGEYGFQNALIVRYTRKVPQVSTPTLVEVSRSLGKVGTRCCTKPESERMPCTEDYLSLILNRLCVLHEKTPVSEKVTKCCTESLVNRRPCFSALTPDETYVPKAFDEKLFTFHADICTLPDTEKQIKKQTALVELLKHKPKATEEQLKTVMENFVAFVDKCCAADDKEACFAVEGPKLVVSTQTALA

[3] = biological target: CD71 (on cancer stem cells and cancer cell lines) (UniProt P02786 1-760, limits assumed); assay: cell-based or functional assay
Sequence of CD71 (on cancer stem cells and cancer cell lines) (P02786 whole entry): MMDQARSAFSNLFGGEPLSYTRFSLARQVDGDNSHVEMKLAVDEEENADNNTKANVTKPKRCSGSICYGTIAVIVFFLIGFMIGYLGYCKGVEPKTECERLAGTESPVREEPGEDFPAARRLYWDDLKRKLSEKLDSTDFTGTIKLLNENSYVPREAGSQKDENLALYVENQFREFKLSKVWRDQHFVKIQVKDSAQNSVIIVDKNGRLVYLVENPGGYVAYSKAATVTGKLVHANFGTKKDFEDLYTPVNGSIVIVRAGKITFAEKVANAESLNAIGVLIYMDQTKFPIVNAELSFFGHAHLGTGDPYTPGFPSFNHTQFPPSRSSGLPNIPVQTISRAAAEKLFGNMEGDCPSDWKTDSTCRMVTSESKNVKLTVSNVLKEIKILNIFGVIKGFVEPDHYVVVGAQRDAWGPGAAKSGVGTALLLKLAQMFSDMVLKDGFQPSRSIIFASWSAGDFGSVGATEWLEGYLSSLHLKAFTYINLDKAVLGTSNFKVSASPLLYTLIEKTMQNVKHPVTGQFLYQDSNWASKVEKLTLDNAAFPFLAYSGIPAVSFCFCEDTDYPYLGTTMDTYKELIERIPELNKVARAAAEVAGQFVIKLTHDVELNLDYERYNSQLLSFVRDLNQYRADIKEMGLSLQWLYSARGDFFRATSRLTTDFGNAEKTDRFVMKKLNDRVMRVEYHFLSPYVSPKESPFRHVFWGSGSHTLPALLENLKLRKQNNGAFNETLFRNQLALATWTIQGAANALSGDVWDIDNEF

B1: 1E12 항체 (antibody, V domains shown)
VH: QMQLVQSGAEVKKPGASVKVSCKASGYIFTDYYMHWVRQAPGQGLEWMGGISPIFGTANYAQNFQGRVTITADESTTTAYMELSNLRSEDTAVYYCAKDGAGPEYYYYGLDVWGQGTSVTVSS
VL: QSALTQPPSVSGSPGQSVTISCTGTSSDIGGYNYVSWYQHHPGKAPKLVISEVTKRPSGVPGRFSGSKSGNTASLTVSGLQAEDEADYYCSSYSDSDNLLFGGGTKLTVLG
notes: also called b) 단클론 항체
B1 was tested, and the binding result [1] was “no binding (tested: 1μg/mL)”, the binding result [2] was “no binding (tested: 1μg/mL)” and the “EC50 세포성장 저해, parent암 세포주 (AlamarBlue)” value [3] was 18.3 nM. The “EC50 세포성장 저해, 암 줄기세포주 (AlamarBlue)” value [3] was 53.3 nM.
